For assay [1], the target named is B/Memphis/13/2003 FluPol PA-NE332-333AA (PB2, PA mutant, PB1-luc2). Particulars: parent: est. 100; read off a plot.
Assay [2] addresses B/Memphis/13/2003 FluPol PA-NENF332-335AAAA (PB2, PA mutant, PB1-luc2). Particulars: parent: est. 100; read off a plot.
Assay [3] has as its target B/Memphis/13/2003 FluPol PA-NY360-361AA (PB2, PA mutant, PB1-luc2). Particulars: parent: est. 100; read off a plot.
Assay [4] has as its target FluPolB (influenza B/Memphis/13/2003 polymerase heterotrimer) (influenza B/Memphis/13/2003) (UniProt Q5V8Z9). In words: mass photometry.

Drawing on article PMC11333492, this text covers percent of parent and percent dimers for four substances.

“B/Memphis/13/2003 FluPol wild type (PB2, PA, PB1-luc1) for the split luciferase assays (from UniProt Q5V8Z9;Q5V8Y6;Q5V8X3) PA:N332A; PA:E333A”: the percent of parent in assay [1] is 33 % FluPol-WT.
As to “B/Memphis/13/2003 FluPol wild type (PB2, PA, PB1-luc1) for the split luciferase assays (from UniProt Q5V8Z9;Q5V8Y6;Q5V8X3) PA:N332A; PA:E333A; PA:N334A; PA:F335A”, the percent of parent in assay [2] worked out at 9 % FluPol-WT.
In the case of “B/Memphis/13/2003 FluPol wild type (PB2, PA, PB1-luc1) for the split luciferase assays (from UniProt Q5V8Z9;Q5V8Y6;Q5V8X3) PA:N360A; PA:Y361A”, the percent of parent in assay [3] was determined as 6 % FluPol-WT.
For the substance “FluPolB (influenza B/Memphis/13/2003 polymerase heterotrimer) (from UniProt Q5V8Z9;Q5V8Y6;Q5V8X3) (complex)”, the percent dimers in assay [4] was found to be 14%.
